The assay concerns the target human Hsp90β (HSP90AB1) (human, UniProt P08238 1-724). Description: ITC. (In general: In ITC the heat of successive injections is recorded.)

The values below come from PMC7679967 (Protein Science : A Publication of the Protein Society, 2020).

Chain of human Hsp90β (HSP90AB1) (P08238 whole entry): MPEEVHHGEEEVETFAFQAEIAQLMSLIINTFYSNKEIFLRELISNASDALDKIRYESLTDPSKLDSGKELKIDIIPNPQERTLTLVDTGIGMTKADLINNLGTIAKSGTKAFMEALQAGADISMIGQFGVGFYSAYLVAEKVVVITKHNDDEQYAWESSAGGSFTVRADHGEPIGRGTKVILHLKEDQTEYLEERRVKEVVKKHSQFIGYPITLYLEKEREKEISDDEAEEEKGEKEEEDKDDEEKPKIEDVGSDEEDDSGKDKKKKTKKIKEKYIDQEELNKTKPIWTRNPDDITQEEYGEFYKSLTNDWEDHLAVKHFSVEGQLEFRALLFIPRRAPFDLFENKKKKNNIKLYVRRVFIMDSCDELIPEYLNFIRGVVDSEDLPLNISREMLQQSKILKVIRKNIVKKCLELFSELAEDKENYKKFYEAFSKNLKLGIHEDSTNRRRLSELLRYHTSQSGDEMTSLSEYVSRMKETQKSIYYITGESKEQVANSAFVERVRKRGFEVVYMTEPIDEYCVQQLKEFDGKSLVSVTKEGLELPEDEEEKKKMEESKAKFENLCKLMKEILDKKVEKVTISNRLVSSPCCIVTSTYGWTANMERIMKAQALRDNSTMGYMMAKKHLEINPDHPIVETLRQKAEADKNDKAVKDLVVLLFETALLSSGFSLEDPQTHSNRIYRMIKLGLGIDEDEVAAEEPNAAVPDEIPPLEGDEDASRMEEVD

B1: Hop112a (Hop aa. 1-352; TPR1, DP1 and TPR2A) (domain or fragment)
chain: not shown
As usually defined, the Kd is the constant that tells how readily two partners part at equilibrium. High values mean lower affinity, low ones higher affinity. A word on the stoichiometry N: it is the number of molecules, sites or subunits per partner or assembly. Consider B1, for which binding was characterised by a dissociation constant (Kd) of 3.59 µM and the “stoichiometry N” value was 0.5.
